Data on 17 molecules can be found in patent US20250381223A1 (UTC THERAPEUTICS SHANGHAI, published 2025).

Where a chain is given by its changes, count along the chain named.

Assay [1] concerns the target T1, BCMA-Fc recombinant protein (human, UniProt Q02223 1-54).
T1 construct: construct not described; not shown: Fc part
T1 sequence (looked up): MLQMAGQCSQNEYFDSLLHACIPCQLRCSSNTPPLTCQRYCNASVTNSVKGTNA
Put plainly: flow cytometry; CAR-T cells stained with 5 µg/mL BCMA-Fc, anti-human IgG Fc. The protocol:
(5) Screening for functional anti-BCMA scFv in T cells: the anti-BCMA scFv was constructed into a bicistronic lentiviral CAR expression vector containing an IRES-truncated EGFR (tEGFR) expression cassette. The lentivirus was produced by transient transfection of 293T cells, followed by purification by ultracentrifugation and concentration. T cells were transduced with the CAR lentivirus to generate CAR-T cells, which were then cultured for 10 days. 10 days after lentivirus transduction, CAR-T cells were collected and stained with 5 μg/mL CD19-Fc protein (Ctrl Fc protein) or BCMA-Fc recombinant protein for 30 min at 4° C. After washing, the CAR-T cells were stained with the anti-human IgG Fc and anti-EGFR mAb. The samples were analyzed using a flow cytometer.

The target of assay [2] is T2, recombinant Human/Cynomolgus CD28 (N-6His) (Human/Cynomolgus, UniProt P10747 19-152).
T2 construct: Bought protein; also called antigen CD28; not shown: 6His tag at the N-terminus (N-6His)
Put plainly: ELISA; plate coated with CD28 (N-6His) 2 µg/mL; HRP-anti-hFc. How it is done: The binding activity of the humanized antibody to the antigen CD28 was detected by the ELISA method. The experimental procedures were as follows: [0525] 1. 30 μL of recombinant Human/Cynomolgus CD28 (N-6His) (Suzhou Novoprotein Scientific Inc., C406) at a concentration of 2 μg/mL was added to each well of an ELISA plate, and the plate was incubated at 4° C. overnight. [0526] 2. The next day, the ELISA plate was washed 3 times with PBST (containing 0.05% Tween-20). [0527] 3. 250 μL of 5% skim milk powder (dissolved in PBS) was added to each well of the ELISA plate, and the plate was incubated at room temperature for 2 h. [0528] 4. The plate was washed 3 times with PBST, antibodies with different dilution ratios were added to the ELISA plate at 30 μL/well, and the plate was incubated at room temperature for 60 min. [0529] 5. The plate was washed 3 times with PBST, 30 μL of HRP-anti-hFc antibody was added to each well, and the plate was incubated at room temperature for 60 min. [0530] 6. The plate was washed 3 times with PBST, 30 μL of TMB was added to each well, and after color development at room temperature, 30 μL of 2 M H₂SO₄ was added to each well to stop the reaction. The plate was read at 450 nm.
(In general: In an ELISA, binding on a coated surface is turned into a signal by an enzyme label.)

Assay [3] concerns the target T3, CD28 (detection antigen of the BLI assay) (human, UniProt P10747 19-152, limits assumed).
T3 construct: also called the antigen
As to the kind of experiment: BLI (GATOR); antibody loaded at 30 nM, antigen 300-37.5 nM. From the text: The affinity kinetics of the humanized antibodies were detected using biolayer interferometry (BLI). The experimental procedures were as follows: [0533] 1. GATOR instrument was run, and the Kinetics experimental mode was selected. [0534] 2. The analysis program was run according to Table 5

B1: BCMA34 (scFv)
scFv: QPGLTQPPSVSKGLRQTATLTCTGNSNNVGNQGAAWLQQHQGHPPKLLSYRNNNRPSGISERFSASRSGNTASLTITGLQPEDEADYYCSAWDSSLSARVFGGGTKLTVLGGGGSGGGGSGGGGSQVQLVQSGAEVKKPGASVKVSCKTSGYTFSNPFVHWVRQAPGQGLEWVGIINLSGGDTLYAQKFQGGVTMTRDTSTNTAYMELTSLTFEDTAVYYCARDQAGFGDSAYWGQGTLVTVSS
notes: On lentivirus-transduced T cells as CAR; also called anti-BCMA scFv BCMA34
With B1, in assay [1], the binding result is given as “binds”.

B2: BCMA32 (scFv)
scFv: QSALTQPASVSGSPGQSITISCTGTSSDVGGYNYVSWYQQHPGKAPKLMIYDVSKRPSGVSNRFSGSKSGNTASLTISGLQAEDEADYYCSSYTSSSTVVFGGGTKLTVLGGGGSGGGGSGGGGSQVQLQESGAEVKKPGSSVKVSCKASGGTFSRYAISWVRQAPGQGLEWMGGIIPFFGTSDYAQKFQGRVTITADESTSTAYMDLSRLRSEDTAVYYCAVRVATTGTGFYYAMDVWGQGTTVTVSS
notes: On lentivirus-transduced T cells as CAR; also called anti-BCMA scFv BCMA32
Take B2: in assay [1], the binding result is given as “binds”.

B3: BCMA23 (scFv)
scFv: QSALTQPPSASGTPGQRVTISCSGSSPNIGGNSVNWYQQLPGTAPKLLMYTNNQRPSGVPDRFSGSKSGTSASLAISGLQSEDEADYYCAAWDDSLNGVVFGGGTKLTVLGGGGSGGGGSGGGGSQVQLVQSGAEVKKPGESLKISCKGSGYSFTSYWIGWVRQMPGKGLEWMGIIYPGDSDTRYSPSFQGQVTISADKSISTAYLQWSSLKASDTAMYYCARRGGALDYWGQGTLVTVSS
notes: On lentivirus-transduced T cells as CAR; also called anti-BCMA scFv BCMA23
Take B3: the binding result in assay [1] was “binds”.

B4: BCMA27 (scFv)
scFv: QSALTQPPSASGSPGQSVTISCTGSRSNVGSYNDVSWYQQHPGKAPKLIIYDVDKRPAGVPDRFSGSKSGNTASLTVSGLQAEDDADYYCSSYGGTYSLFVFGTGTELTVLGGGGSGGGGSGGGGSEVQLVESGGDLVQPGGSLRLSCAASGFTFSSYGMHWVRQAPGKGLEWVAVISYDGSNKYYADSVKGRFTISRDNSKNTLYLQMNSLRAEDTAVYYCAKEEFYGDSSYGMDVWGQGTTVTVSS
notes: On lentivirus-transduced T cells as CAR; also called anti-BCMA scFv BCMA27
As for B4, in assay [1], the binding result was “binds”.

B5: huVH2huVL2 (antibody, human IgG1, kappa, V domains shown)
VH: QVQLQESGPGLVKPSETLSITCTVSGFSLSDYGVHWVRQPPGKGLEWLGVIWAGGGTNYNSALMSRKTISKDTSKNQVSLKMSSLTAADTAVYYCARDKGYSYYYSMDYWGQGTTVTVSS
VL: DIQLTQSPSSLSASVGDRVTITCRASESVEYYVTSLMQWYQQKPGKAPKLLIFAASNVESGVPSRFSGSGSGTNFTLTISSVQPEDFATYFCQQSRKVPYTFGGGTKLEIKR
The term EC50 denotes the concentration needed to bring the measured effect to its halfway point. The Kd is the equilibrium constant for the complex coming apart. The low end stands for tighter binding, the high end for weaker binding. Usually koff stands for the first-order rate constant of dissociation. High values mean fast dissociation, low ones slow dissociation. In general, kon refers to the second-order rate constant of association. Consider B5, for which, in assay [2], the EC50 was 0.0126 µg/mL. In assay [3], this molecule displayed a Kd of 6.59 nM, a koff of 0.000584 s⁻¹ and an on-rate constant (kon) of 88700 M⁻¹ s⁻¹.

B6: huVH3huVL3 (antibody, human IgG1, kappa, V domains shown)
VH: B5 VH with I20L, P40S, L48I, M64K, T73N, N76S, M82L, L85V
VL: B5 VL with N74D, V82L, F91Y
Turning to B6, the EC50 in assay [2] stood at 0.00827 µg/mL. In assay [3], this molecule displayed a Kd of 9.59 nM, a koff of 0.000818 s⁻¹ and a kon of 85300 M⁻¹ s⁻¹.

B7: huVH2huVL3 (antibody, human IgG1, kappa, V domains shown)
VH: B5 VH
VL: B5 VL with N74D, V82L, F91Y
On to B7, for which, in assay [2], the EC50 turned out to be 0.0104 µg/mL. In assay [3], this molecule registered a Kd of 7.44 nM, a koff of 0.000635 s⁻¹ and a kon of 85400 M⁻¹ s⁻¹.

B8: huVH5huVL2 (antibody, human IgG1, kappa, V domains shown)
VH: QVQLQESGPGLVKPSETLSLTCTVSGFSISDYGVHWIRQPPGKGLEWIGVIWAGGGTNYNPSLKSRVTISVDTSKNQVSLKLSSVTAADTAVYYCARDKGYSYYYSMDYWGQGTTVTVSS
VL: B5 VL
With B8, the EC50 in assay [2] came to 0.0151 µg/mL. Besides, in assay [3], binding was characterised by a dissociation constant (Kd) of 10.8 nM, the koff is 0.000909 s⁻¹ and the kon worked out at 84100 M⁻¹ s⁻¹.

B9: huVH4huVL3 (antibody, human IgG1, kappa, V domains shown)
VH: B8 VH with I29L, P61S, S62A
VL: B5 VL with N74D, V82L, F91Y
Take B9: in assay [2], the EC50 worked out at 0.0127 µg/mL. In assay [3], this molecule had a dissociation constant Kd of 11.2 nM, a koff of 0.000966 s⁻¹ and a kon of 86600 M⁻¹ s⁻¹.

B10: huVH4huVL2 (antibody, human IgG1, kappa, V domains shown)
VH: B8 VH with I29L, P61S, S62A
VL: B5 VL
For the molecule B10, in assay [2], the concentration for a half-maximal effect (EC50) was determined as 0.0126 µg/mL. In assay [3], this molecule had a dissociation constant (Kd) of 10.9 nM, a koff of 0.000932 s⁻¹ and a kon of 85400 M⁻¹ s⁻¹.

B11: huVH3huVL1 (antibody, human IgG1, kappa, V domains shown)
VH: B5 VH with I20L, P40S, L48I, M64K, T73N, N76S, M82L, L85V
VL: B5 VL with A13V, T22S, K46Q, P84E, T89M
As for B11, in assay [2], the EC50 came to 0.0121 µg/mL. In assay [3], this molecule returned a Kd of 8.36 nM, an off-rate (koff) of 0.000727 s⁻¹ and a kon of 86900 M⁻¹ s⁻¹.

B12: BCMA31 (scFv)
scFv: QSALTQPPSASGSPGQSVTISCTGTSSDVGTYNYVSWYQQHPGKAPKLMIYDVNQRPSGVPDRFSGSKSGNTASLTVSGLQAEDEADYYCSSYGGSNNLVFGGGTKVTVLGGGGSGGGGSGGGGSEVQLVESGGGLIQPGGSLRLSCAASGFTFSSYWMSWVRQSPGKGLEWVANIKPDGSDKYYVDSVKGRFTISRDNAKNSLDLQMNSLRGEDTAIYYCARGATTYGSWGQGTLVTVSS
notes: On lentivirus-transduced T cells as CAR; also called anti-BCMA scFv BCMA31
As to B12, the binding result in assay [1] was “binds”.

B13: BCMA22 (scFv)
scFv: QSALTQPASVSGSPGQSITISCTGTSSDVGGYNYVSWYQQHPGKAPKLMIYEVTNRPSGVSNRFSGSKSGNTASLTISGLQAEDEAHYYCISYTSSSTLDYVFGTGTKVTVLGGGGSGGGGSGGGGSEVQLVESGPGLVKPSGTLSLTCAVSGGSISSSNWWSWVRQPPGKGLEWIGEIYHSGSTNYNPSLKSRVTISVDKSKNQFSLKLSSVTAADTAVYYCARVGSGYSYGYGDRVLDYWGQGTLVTVSS
notes: On lentivirus-transduced T cells as CAR; also called anti-BCMA scFv BCMA22
Consider B13, for which, in assay [1], the binding result is on record as “binds”.

B14: BCMA24 (scFv)
scFv: QSVLTQPPSASGTPGQRVTISCSGSSSNIGSYSVNWYQQIPGTAPKLLIYSNNQRPSGVPDRFSGSKSGTSASLAISGLQSEDEADYSCAAWDDSLNGVVFGGGTKLTVLGGGGSGGGGSGGGGSQVQLVQSGAEVKKPGSSVKVSCKASGGTFSSYAISWVRQAPGQGLEWMGGIIPIFGTANYAQKFQGRVTITADESTSTAYMELSSLRSEDTAVYYCARGSFYSSVNVWGQGTTVTVSS
notes: On lentivirus-transduced T cells as CAR; also called anti-BCMA scFv BCMA24
For B14, the binding result in assay [1] is given as “binds”.

B15: BCMA28 (scFv)
scFv: QSALTQPPSVSEAPRQRVTISCSGSSSNIGQNAVNWYQKLPGKAPKLLIYYNDLVSSGVSDRFSGSKSGTSASLAISGLQSEDEADYYCATWDDSLNGVVFGGGTKVTVLGGGGSGGGGSGGGGSQVQLVQSGPGLVKPSQTLSLTCAISGDSVSSNSAAWNWIRQSPSRGLEWLGRTYYRSKWYNDYAVSVKSRITINPDTSKNQFSLQLNSVTPEDTAVYYCARDYYYGMDVWGQGTTVTVSS
notes: On lentivirus-transduced T cells as CAR; also called anti-BCMA scFv BCMA28
Regarding B15, the binding result in assay [1] is on record as “binds”.

B16: BCMA33 (scFv)
scFv: QSALTQPPSASGSPGQSVTISCTGTSSDVGGYNYVSWYQQHPGKAPKLMIYEVSKRPSGVPDRFSGSKSGNTASLTVSGLQAEDEADYFCSSYAGSNNFVVFGGGTKLTVLGGGGSGGGGSGGGGSEVQLVESGGGLVQPGRSLRLSCAASGFTFDDYAMHWVRQAPGKGLEWVSGISWNSGSIGYADSVKGRFTISRDNAKNSLYLQMNSLRAEDTALYYCAKVGASAALGAFDIWGQGTMVTVSS
notes: On lentivirus-transduced T cells as CAR; also called anti-BCMA scFv BCMA33
As to B16, in assay [1], the binding result was “binds”.

B17: BCMA30 (scFv)
scFv: DIQMTQSPSFLSASVGDRVTITCRASQGISSYLAWYQQKPGKAPKLLIYAASTLQSGVPSRFSGSGSGTEFTLTISSLQPEDFATYYCQQLNSYPPWTFGQGTKVEIKGGGGSGGGGSGGGGSQVQLVQSGAEVKKPGESLKISCKGSGYRFTSYWIGWVRQMPGKGLEWMGIIYPGDSDTRYSPPFQGQVTISADKSIDTAYLQWSSLKASDTAMYYCARLDASGSQRGGMDVWGQGTTVTVSS
notes: On lentivirus-transduced T cells as CAR; also called anti-BCMA scFv BCMA30
On to B17, for which the binding result in assay [1] is “binds”.
